Experimental findings from US20060099701 are described below.

The subject of series [1] is ACDK proteins (immunoprecipitated from brain tissue extracts with the anti-ACDK-specific antibody).
Series [2] concerns cyclin A (immunoprecipitated).

Take CDK1 (immunoprecipitated, native): the “pRB phosphorylation (kinase reaction, Western blot with pRB phosphospecific antibodies)” value (“pRB phosphorylation” below) is “by ACDK-CDK1 complex at serine 249 and/or threonine 252” in series [1] and “Lane B, pRB phosphorylated by cyclin A-CDK1 (positive control)” in series [2].

As for CDK2 (immunoprecipitated, native), in series [1], the “observed phosphorylation efficiency of pRB, against the cyclin A-CDK2 complex” value is “ACDK-CDK2 activity was approximately 2-fold higher than that of cyclin A-CDK2 complex” and the “pRB phosphorylation” value is recorded as “pRB was phosphorylated by ACDK-CDK2 complex at threonine 821”. Further, the “pRB phosphorylation” value in series [2] was “Lane B, pRB phosphorylated by cyclin A-CDK2 (positive control)”.
